# Data taken from paper PMC3688580, “Crystal Structure, SAXS and Kinetic Mechanism of Hyperthermophilic ADP-Dependent Glucokinase from Thermococcus litoralis Reveal a Conserved Mechanism for Catalysis” (PLoS ONE, 2013).
# B1: TlGK (ADP-dependent glucokinase from Thermococcus litoralis) (Thermococcus litoralis DSM 5473) (protein)
# chain: MKESLKDRIRLWKRLYVNAFENALNAIPNVKGVLLAYNTNIDAIKYLDKDDLEKRVTEIGKEKVFEIIENPPEKISSIEELLGGILRSIKLGKAMEWFVESEEVRRYLREWGWDELRIGGQAGIMANLLGGVYRIPTIVHVPQNPKLQAELFVDGPIYVPVFEGNKLKLVHPKDAIAEEEELIHYIYEFPRGFQVFDVQAPRENRFIANADDYNARVYMRREFREGFEEITRNVELAIISGLQVLKEYYPDGTTYRDVLDRVESHLNILNRYNVKSHFEFAYTANRRVREALVELLPKFTSVGLNEVELASIMEIIGDEELAKEVLEGHIFSVIDAMNVLMDETGIERIHFHTYGYYLALTQYRGEEVRDALLFASLAAAAKAMKGNLERIEQIRDALSVPTNERAIVLEEELEKEFTEFENGLIDMVDRQLAFVPTKIVASPKSTVGIGDTISSSAFVSEFGMRKR
# notes: recombinant, purified from LB culture as in Merino et al. (heat shock, ammonium sulfate, two chromatographic steps); two-domain enzyme
# Substrate: Nc1ncnc2c1ncn2[C@@H]1O[C@H](COP(=O)(O)OP(=O)(O)O)[C@@H](O)[C@H]1O
# Assay: purified protein
# Type: biochemical, Thermococcus litoralis
# Conditions: co-substrate D-glucose varied, Mg2+ (constant free Mg2+), 25 mM Hepes pH 7.8, 40 °C, ordered Bi-Bi, first substrate
protein,measurement,value
B1,Km,8.6 µM
